Numbered stars: 1 amine (or outer) side, 2 acyl side, 3 side chain; on linkers, the order of the positions; unused ones are H or OH. Bridge positions count the residues as written; N and C are the ends. Side chains are listed from the residue outwards. Ends that are not written are not given here. * marks the point of attachment. C20 diacid = O=C(O)CCCCCCCCCCCCCCCCCCC(=O)*; γGlu = O=C(O)[C@H](CCC(=O)[*:2])N[*:1]; AEEA = NCCOCCOCC(=O)O
B1: N^ε1-[2-[2-[2-[[(4S)-4-carboxy-4-(19-carboxynonadecanoylamino)butanoyl]amino]ethoxy]ethoxy]acetyl]-[Arg17,Pro21,Pro27,His34]-h-amylin (peptide)
peptide: K([AEEA-γGlu-C20 diacid])CNTATCATQRLANFLRHSSPNFGAIPSSTNVGHNTY-NH2
modifications: disulfide 2-7; N-terminus assumed
SMILES: CC[C@H](C)[C@H](NC(=O)[C@H](C)NC(=O)CNC(=O)[C@H](Cc1ccccc1)NC(=O)[C@H](CC(N)=O)NC(=O)[C@@H]1CCCN1C(=O)[C@H](CO)NC(=O)[C@H](CO)NC(=O)[C@H](Cc1c[nH]cn1)NC(=O)[C@H](CCCNC(=N)N)NC(=O)[C@H](CC(C)C)NC(=O)[C@H](Cc1ccccc1)NC(=O)[C@H](CC(N)=O)NC(=O)[C@H](C)NC(=O)[C@H](CC(C)C)NC(=O)[C@H](CCCNC(=N)N)NC(=O)[C@H](CCC(N)=O)NC(=O)[C@@H](NC(=O)[C@H](C)NC(=O)[C@@H]1CSSC[C@H](NC(=O)[C@@H](N)CCCCNC(=O)COCCOCCNC(=O)CC[C@H](NC(=O)CCCCCCCCCCCCCCCCCCC(=O)O)C(=O)O)C(=O)N[C@@H](CC(N)=O)C(=O)N[C@@H]([C@@H](C)O)C(=O)N[C@@H](C)C(=O)N[C@@H]([C@@H](C)O)C(=O)N1)[C@@H](C)O)C(=O)N1CCC[C@H]1C(=O)N[C@@H](CO)C(=O)N[C@@H](CO)C(=O)N[C@H](C(=O)N[C@@H](CC(N)=O)C(=O)N[C@H](C(=O)NCC(=O)N[C@@H](Cc1c[nH]cn1)C(=O)N[C@@H](CC(N)=O)C(=O)N[C@H](C(=O)N[C@@H](Cc1ccc(O)cc1)C(N)=O)[C@@H](C)O)C(C)C)[C@@H](C)O
notes: Analogue of human amylin; also called compound 76
B2: N^ε1-[2-[2-[2-[[(4S)-4-carboxy-4-(19-carboxynonadecanoylamino)butanoyl]amino]ethoxy]ethoxy]acetyl]-[Arg17,Pro21,Pro27,Pro29,Pro34]-h-amylin (peptide)
peptide: K([AEEA-γGlu-C20 diacid])CNTATCATQRLANFLRHSSPNFGAIPSPTNVGPNTY-NH2
modifications: disulfide 2-7; N-terminus assumed
SMILES: CC[C@H](C)[C@H](NC(=O)[C@H](C)NC(=O)CNC(=O)[C@H](Cc1ccccc1)NC(=O)[C@H](CC(N)=O)NC(=O)[C@@H]1CCCN1C(=O)[C@H](CO)NC(=O)[C@H](CO)NC(=O)[C@H](Cc1c[nH]cn1)NC(=O)[C@H](CCCNC(=N)N)NC(=O)[C@H](CC(C)C)NC(=O)[C@H](Cc1ccccc1)NC(=O)[C@H](CC(N)=O)NC(=O)[C@H](C)NC(=O)[C@H](CC(C)C)NC(=O)[C@H](CCCNC(=N)N)NC(=O)[C@H](CCC(N)=O)NC(=O)[C@@H](NC(=O)[C@H](C)NC(=O)[C@@H]1CSSC[C@H](NC(=O)[C@@H](N)CCCCNC(=O)COCCOCCNC(=O)CC[C@H](NC(=O)CCCCCCCCCCCCCCCCCCC(=O)O)C(=O)O)C(=O)N[C@@H](CC(N)=O)C(=O)N[C@@H]([C@@H](C)O)C(=O)N[C@@H](C)C(=O)N[C@@H]([C@@H](C)O)C(=O)N1)[C@@H](C)O)C(=O)N1CCC[C@H]1C(=O)N[C@@H](CO)C(=O)N1CCC[C@H]1C(=O)N[C@H](C(=O)N[C@@H](CC(N)=O)C(=O)N[C@H](C(=O)NCC(=O)N1CCC[C@H]1C(=O)N[C@@H](CC(N)=O)C(=O)N[C@H](C(=O)N[C@@H](Cc1ccc(O)cc1)C(N)=O)[C@@H](C)O)C(C)C)[C@@H](C)O
notes: Analogue of human amylin; also called compound 56
B3: N^ε1-[2-[2-[2-[[(4S)-4-carboxy-4-(19-carboxynonadecanoylamino)butanoyl]amino]ethoxy]ethoxy]acetyl]-[Arg17,Pro21,Pro27,Pro29,Pro31]-h-amylin (peptide)
peptide: K([AEEA-γGlu-C20 diacid])CNTATCATQRLANFLRHSSPNFGAIPSPTPVGSNTY-NH2
modifications: disulfide 2-7; N-terminus assumed
SMILES: CC[C@H](C)[C@H](NC(=O)[C@H](C)NC(=O)CNC(=O)[C@H](Cc1ccccc1)NC(=O)[C@H](CC(N)=O)NC(=O)[C@@H]1CCCN1C(=O)[C@H](CO)NC(=O)[C@H](CO)NC(=O)[C@H](Cc1c[nH]cn1)NC(=O)[C@H](CCCNC(=N)N)NC(=O)[C@H](CC(C)C)NC(=O)[C@H](Cc1ccccc1)NC(=O)[C@H](CC(N)=O)NC(=O)[C@H](C)NC(=O)[C@H](CC(C)C)NC(=O)[C@H](CCCNC(=N)N)NC(=O)[C@H](CCC(N)=O)NC(=O)[C@@H](NC(=O)[C@H](C)NC(=O)[C@@H]1CSSC[C@H](NC(=O)[C@@H](N)CCCCNC(=O)COCCOCCNC(=O)CC[C@H](NC(=O)CCCCCCCCCCCCCCCCCCC(=O)O)C(=O)O)C(=O)N[C@@H](CC(N)=O)C(=O)N[C@@H]([C@@H](C)O)C(=O)N[C@@H](C)C(=O)N[C@@H]([C@@H](C)O)C(=O)N1)[C@@H](C)O)C(=O)N1CCC[C@H]1C(=O)N[C@@H](CO)C(=O)N1CCC[C@H]1C(=O)N[C@H](C(=O)N1CCC[C@H]1C(=O)N[C@H](C(=O)NCC(=O)N[C@@H](CO)C(=O)N[C@@H](CC(N)=O)C(=O)N[C@H](C(=O)N[C@@H](Cc1ccc(O)cc1)C(N)=O)[C@@H](C)O)C(C)C)[C@@H](C)O
notes: Analogue of human amylin; also called compound 54
B4: N^ε1-[2-[2-[2-[[(4S)-4-carboxy-4-(19-carboxynonadecanoylamino)butanoyl]amino]ethoxy]ethoxy]acetyl]-[Arg17,Pro21,Pro27,Pro28,Pro31]-h-amylin (peptide)
peptide: K([AEEA-γGlu-C20 diacid])CNTATCATQRLANFLRHSSPNFGAIPPSTPVGSNTY-NH2
modifications: disulfide 2-7
notes: Analogue of human amylin; also called compound 53
B5: N^ε1-[2-[2-[2-[[(4S)-4-carboxy-4-(19-carboxynonadecanoylamino)butanoyl]amino]ethoxy]ethoxy]acetyl]-[Arg17,Pro21,Pro27,Pro28,Pro34]-h-amylin (peptide)
peptide: K([AEEA-γGlu-C20 diacid])CNTATCATQRLANFLRHSSPNFGAIPPSTNVGPNTY-NH2
modifications: disulfide 2-7; N-terminus assumed
SMILES: CC[C@H](C)[C@H](NC(=O)[C@H](C)NC(=O)CNC(=O)[C@H](Cc1ccccc1)NC(=O)[C@H](CC(N)=O)NC(=O)[C@@H]1CCCN1C(=O)[C@H](CO)NC(=O)[C@H](CO)NC(=O)[C@H](Cc1c[nH]cn1)NC(=O)[C@H](CCCNC(=N)N)NC(=O)[C@H](CC(C)C)NC(=O)[C@H](Cc1ccccc1)NC(=O)[C@H](CC(N)=O)NC(=O)[C@H](C)NC(=O)[C@H](CC(C)C)NC(=O)[C@H](CCCNC(=N)N)NC(=O)[C@H](CCC(N)=O)NC(=O)[C@@H](NC(=O)[C@H](C)NC(=O)[C@@H]1CSSC[C@H](NC(=O)[C@@H](N)CCCCNC(=O)COCCOCCNC(=O)CC[C@H](NC(=O)CCCCCCCCCCCCCCCCCCC(=O)O)C(=O)O)C(=O)N[C@@H](CC(N)=O)C(=O)N[C@@H]([C@@H](C)O)C(=O)N[C@@H](C)C(=O)N[C@@H]([C@@H](C)O)C(=O)N1)[C@@H](C)O)C(=O)N1CCC[C@H]1C(=O)N1CCC[C@H]1C(=O)N[C@@H](CO)C(=O)N[C@H](C(=O)N[C@@H](CC(N)=O)C(=O)N[C@H](C(=O)NCC(=O)N1CCC[C@H]1C(=O)N[C@@H](CC(N)=O)C(=O)N[C@H](C(=O)N[C@@H](Cc1ccc(O)cc1)C(N)=O)[C@@H](C)O)C(C)C)[C@@H](C)O
notes: Analogue of human amylin; also called compound 55

Biological target: T1, rat calcitonin receptor (rat, UniProt P32214 25-516)
T1 construct: whole, on cells; Used as membranes prepared from BHK tk'ts 13 cells transiently transfected with the rat calcitonin receptor (Assay VIII); also called rCTR; rat calcitonin (a) receptor
T1 sequence (looked up): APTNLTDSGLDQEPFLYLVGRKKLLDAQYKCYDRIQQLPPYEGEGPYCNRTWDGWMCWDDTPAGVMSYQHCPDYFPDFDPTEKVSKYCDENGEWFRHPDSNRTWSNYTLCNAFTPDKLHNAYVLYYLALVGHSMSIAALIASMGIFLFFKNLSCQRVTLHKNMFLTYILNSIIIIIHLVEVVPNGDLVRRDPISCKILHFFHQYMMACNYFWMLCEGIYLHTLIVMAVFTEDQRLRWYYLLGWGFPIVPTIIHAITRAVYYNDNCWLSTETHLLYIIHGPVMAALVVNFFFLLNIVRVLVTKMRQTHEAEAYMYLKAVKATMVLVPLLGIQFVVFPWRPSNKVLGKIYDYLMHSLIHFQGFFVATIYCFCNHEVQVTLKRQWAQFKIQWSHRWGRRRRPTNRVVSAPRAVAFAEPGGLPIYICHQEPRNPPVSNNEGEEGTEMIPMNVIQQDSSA
Test: IC50 on rat CTR divided by IC50 on rat amylin receptor (Assays VIII/VI)

First: B1
Second: B2
The “Ratio rCT/rAmylin binding” value of the first is lower: 56.8 for the first, 131 for the second.

First: B3
Second: B4
The “Ratio rCT/rAmylin binding” value of the first is higher: 179 for the first, 130 for the second.

B5 was tested, and the “Ratio rCT/rAmylin binding” value was 77.2.

Biological target: T2, human calcitonin receptor (human, UniProt P30988 25-474)
T2 construct: whole, on cells; Used as membranes prepared from a BHK tk'ts 13 cell line stably transfected with the human calcitonin receptor (Assay VII); also called hCTR; hCT
T2 sequence (looked up): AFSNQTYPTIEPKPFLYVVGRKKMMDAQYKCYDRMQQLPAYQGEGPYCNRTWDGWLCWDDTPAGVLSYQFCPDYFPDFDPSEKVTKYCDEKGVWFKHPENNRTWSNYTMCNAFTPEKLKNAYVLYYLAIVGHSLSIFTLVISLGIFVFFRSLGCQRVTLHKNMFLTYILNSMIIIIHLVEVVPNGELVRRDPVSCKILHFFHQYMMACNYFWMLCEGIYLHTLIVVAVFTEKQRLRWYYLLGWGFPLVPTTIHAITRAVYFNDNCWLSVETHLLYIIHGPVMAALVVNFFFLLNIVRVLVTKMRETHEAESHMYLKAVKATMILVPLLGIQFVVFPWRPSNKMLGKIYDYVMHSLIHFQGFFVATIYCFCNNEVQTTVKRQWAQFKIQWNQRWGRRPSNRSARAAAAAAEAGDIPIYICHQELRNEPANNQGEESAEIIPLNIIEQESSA
Test: IC50 on human CTR divided by IC50 on human amylin receptor (Assays VII/V)
Experimental: The resulting pellet was resuspended, homogenized and centrifuged (20.000 rpm, 15 min) in a buffer containing 20 mM Na-HEPES and 0.1 mM EDTA (pH 7.4, buffer 2). The resulting pellet was resuspended in buffer 2 and protein concentration was measured (BCA protein Assay, Pierce). The homogenate was kept cold during the whole procedure. The membranes were kept at −80° C. until use. The assay was performed in a 384 well Optiplate (PerkinElmer) in a total volume of 40 ul. Membranes were mixed with SPA beads. Final concentration of membranes 35 ng/μL final and SPA beads was 0.05 mg/well. Test-compounds were dissolved in DMSO and further diluted in assay buffer (50 mM Hepes, pH 7.4, 1 mM CaCl2, 5 mM MgCl₂, 0.1% OA and 0.02% Tween20). […] The final mixture was incubated with shaking at 400 rpm for 120 min at 25° C. prior to centrifugation (1500 rpm, 10 min). Samples were analyzed on TopCounter™ (Packard). The IC₅₀ was calculated using (one site binding competition analysis) GraphPad Prism5 as a measure of receptor affinity.
Membranes were prepared in the following way; the cells were rinsed with PBS and incubated with Versene for approximately 5 min before harvesting. The cells were flushed with PBS and the cell-suspension was centrifuged for 5 min at 1000 rpm. Cells were homogenized (Ultrathurrax) in a buffer containing 20 mM Na-HEPES and 10 mM EDTA (pH 7.4) and centrifuged at 20.000 rpm for 15 min. The resulting pellet was resuspended, homogenized and centrifuged (20.000 rpm, 15 min) in a buffer containing 20 mM Na-HEPES and 0.1 mM EDTA (pH 7.4, buffer 2). The resulting pellet was resuspended in buffer 2 and protein concentration was measured (BCA protein Assay, Pierce). The homogenate was kept cold during the whole procedure. The membranes were kept at −80° C. until use. Assay was performed in a 384 well Optiplate (PerkinElmer) in a total volume of 40 ul. Membranes were mixed with SPA beads.

Compared with B1, B2 is lower in “Ratio hCT/hAmylin binding” value: 80 for the first, 42.6 for the second.

Going from B3 to B4, the “Ratio hCT/hAmylin binding” value falls from 146 to 104.

For B5, the “Ratio hCT/hAmylin binding” value was 51.8.

Biological target: T1, rat calcitonin receptor
Test: SPA competition with 125I-calcitonin, membranes of BHK cells with rat CTR (Assay VIII)

Going from B1 to B2, the IC50 falls from 38.9 nM to 5.26 nM (7.4-fold). The second is the more potent here.

B3 and B4 are within 1.5-fold of each other in IC50: 8.79 nM for the first, 10.9 nM for the second.

B5 showed an IC50 of 6.25 nM.

Biological target: T3, rat amylin receptor (rat calcitonin receptor + rat RAMP 3) (rat, UniProt P32214 25-516; Q9JJ73 23-147)
T3 construct: whole, on cells; Used as membranes prepared from BHK tk'ts 13 cells transiently transfected with rat calcitonin receptor and rat RAMP 3 (Assay VI); also called rAmylin-R; rat amylin 3(a) receptor
T3 sequence (looked up) 1: T1 sequence (looked up)
T3 sequence (looked up) 2: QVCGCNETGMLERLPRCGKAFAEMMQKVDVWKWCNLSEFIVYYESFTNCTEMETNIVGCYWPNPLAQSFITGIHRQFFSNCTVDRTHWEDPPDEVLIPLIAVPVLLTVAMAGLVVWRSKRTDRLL
Test: SPA competition with 125I-rat amylin, membranes of BHK cells with rat CTR + rat RAMP3 (Assay VI)

Going from B1 to B2, the IC50 falls from 0.686 nM to 0.04 nM (17-fold). The second is the more potent here.

First: B3
Second: B4
The IC50 of the first is 1.7-fold lower: 0.049 nM for the first, 0.084 nM for the second.

B5 gave an IC50 of 0.081 nM.

Reference: patent US20140087995A1 (published 2014)
